Data taken from patent publication US20070292347A1 (LONDON HEALTH SCIENCES CENTRE RESEARCH, published 2007).
Square brackets hold non-standard residues; d marks the D form. Ends that are not written are not given here. Cit = NC(=O)NCCC[C@H](N)C(=O)O

B1: Vim R70Cit, altered human vimentin peptide 65-77 (peptide)
peptide: SAVRA[Cit]SSVPGVR
notes: Synthetic peptide; also called Vimentin R70Cit; citrulline containing vimentin peptide
B2: Vim 65-77, human vimentin peptide 65-77 (peptide)
peptide: SAVRARSSVPGVR
notes: Synthetic peptide (Genemed Synthesis); also called Vimentin 65-77; unmodified vimentin peptide

Columns and labels:
[1] = biological target: T1, purified HLA-DRB1*0101 molecule (human); experiment: peptide competition assay, displacement of radio-labelled peptide probe from purified MHC class II
T1 construct: Purified MHC class II molecule
Text: (§1) Results are expressed as the inverse of the IC₅₀ values measured in nM.

[2] = biological target: T2, purified HLA-DRB1*0401 molecule (human); experiment: as above
T2 construct: Purified MHC class II molecule
Text: as §1

[3] = biological target: T3, purified HLA-DRB1*0404 molecule (human); experiment: as above
T3 construct: Purified MHC class II molecule
Text: as §1

[4] = biological target: T4, purified HLA-DRB1*1302 molecule (human); experiment: peptide competition assay on purified MHC class II
T4 construct: Purified MHC class II molecule
Text: as §1

[5] = biological target: T5, purified HLA-DRB1*0301 molecule (human); experiment: peptide competition assay on purified MHC class II
T5 construct: Purified MHC class II molecule
Text: as §1

[6] = biological target: T6, purified HLA-DRB1*0802 molecule (human); experiment: peptide competition assay on purified MHC class II
T6 construct: Purified MHC class II molecule
Text: as §1

[7] = biological target: T7, purified HLA-DRB1*1101 molecule (human); experiment: peptide competition assay on purified MHC class II
T7 construct: Purified MHC class II molecule
Text: as §1

Row | Binder | fold higher affinity compared to the unmodified peptide (Vim 65-77) [1] | fold higher affinity compared to the unmodified peptide (Vim 65-77) [2] | fold higher affinity compared to the unmodified peptide (Vim 65-77) [3] | binding result [4] | binding result [5] | binding result [6] | binding result [7]
1 | B1 | 100 fold | 90 fold | 20 fold | – | – | – | –
2 | B2 | – | – | – | binds | binds | binds | binds
